Laboratory results: patent publication US20220195023A1

Tests used:
[1] = target: (NPNA)3 (Plasmodium falciparum); experiment: SPR, antibody on chip
[2] = target: (NANP)6 (Plasmodium falciparum); experiment: SPR, antibody on chip
[3] = target: … (Plasmodium falciparum); experiment: SPR, antibody on chip
[4] = target: (NVDP)3(NANP)2 (Plasmodium falciparum); experiment: SPR, antibody on chip
[5] = target: (NPNA)3 (Plasmodium falciparum); experiment: BLI, target on sensor
[6] = target: (NANP)6 (Plasmodium falciparum); experiment: BLI, target on sensor
[7] = target: NANPNVDP (Plasmodium falciparum); experiment: BLI, target on sensor
[8] = target: … (Plasmodium falciparum); experiment: BLI, target on sensor
[9] = target: (NVDP)3(NANP)2 (Plasmodium falciparum); experiment: BLI, target on sensor

B1: AB-007043 (antibody, V domains shown)
VH: QMQLVESGGGVVQPGRSLRLSCTASGFTFSTYAMHWVRQSPGQGLQWVAVISYHSTNKYYEDSVRGRFTISRDNSKNTLYLQMNSLRAEDTAVYYCARDGYSSSFFDFWGQGTLVTVSS
VL: DIQMTQSPSTLSASVGDRVAITCRASQSISRWLAWYQQQPGKAPKLLMSGASVLEDGVPSRFSGSGSGTEFTLTISSLQPDDFATYYCQHYNSYFVTFGQGTKVEIK
Kd [1]: 7.51 nM
Kd [2]: 1.11 nM
Kd [3]: 16.3 µM
Kd [4]: 2590 nM
Kd [5]: 0.00341 nM
Kd [6]: 0.293 nM
Kd [7]: 10.4 nM
Kd [8]: 4.87 nM
Kd [9]: 5.2 nM

B2: AB-007046 (antibody, V domains shown)
VH: QMQLVESGGGVVQPGRSLRLSCTASGFTFSTYAMHWVRQSPGQGLQWVAVISYHSTNKYYEDSVRGRFTISRDNSKNTLYLQMNSLRAEDTAVYYCARDGYSSSFFDFWGQGTLVTVSS
VL: DIQMTQSPSTLSASVGDRVAITCRASQSISRWLAWYQQQPGKAPKLLMSGASVLESGVPSRFSGSGSGTEFTLTISSLQPDDFATYYCQHYYSYFVTFGQGTKVEIK
Kd [1]: 10.3 nM
Kd [2]: 1.27 nM
Kd [3]: 11.6 µM
Kd [4]: 2810 nM
Kd [5]: 1.57 nM
Kd [6]: 2.58 nM
Kd [7]: 11.1 nM
Kd [8]: 9.15 nM
Kd [9]: 11.6 nM

B3: AB-007051 (antibody, V domains shown)
VH: QMQLVESGGGVVQPGRSLRLSCTASGFTFSTYAMHWVRQSPGQGLQWVAVISYHSRNKYYEDSVRGRFTISRDNSKNTLYLQMNSLRAEDTAVYYCARDGYSSSFFDFWGQGTLVTVSS
VL: DIQMTQSPSTLSASVGDRVAITCRASQSISRWLAWYQQQPGKAPKLLMSGASVLESGVPSRFSGSGSGTEFTLTISSLQPDDFATYYCQHYNSYFVTFGQGTKVEIK
Kd [1]: 5.19 nM
Kd [2]: 0.507 nM
Kd [3]: 8.84 µM
Kd [4]: 2490 nM
Kd [5]: 0.591 nM
Kd [6]: 1.08 nM
Kd [7]: 6.57 nM
Kd [8]: 3.23 nM
Kd [9]: 4.89 nM

B4: AB-007052 (antibody, V domains shown)
VH: QMQLVESGGGVVQPGRSLRLSCTASGFTFSTYAMHWVRQSPGQGLQWVAVISYHSNNKYYEDSVRGRFTISRDNSKNTLYLQMNSLRAEDTAVYYCARDGYSSSFFDFWGQGTLVTVSS
VL: DIQMTQSPSTLSASVGDRVAITCRASQSISRWLAWYQQQPGKAPKLLMSGASVLESGVPSRFSGSGSGTEFTLTISSLQPDDFATYYCQHYNSYFVTFGQGTKVEIK
Kd [1]: 6.31 nM
Kd [2]: 0.0442 nM
Kd [3]: 7.14 µM
Kd [4]: 2560 nM
Kd [5]: 0.0169 nM
Kd [6]: 0.392 nM
Kd [7]: 7.34 nM
Kd [8]: 3.83 nM
Kd [9]: 6.28 nM

B5: AB-007044 (antibody, V domains shown)
VH: QMQLVESGGGVVQPGRSLRLSCTASGFTFSTYAMHWVRQSPGQGLQWVAVISYHSTNKYYEESVRGRFTISRDNSKNTLYLQMNSLRAEDTAVYYCARDGYSSSFFDFWGQGTLVTVSS
VL: DIQMTQSPSTLSASVGDRVAITCRASQSISRWLAWYQQQPGKAPKLLMSGASVLESGVPSRFSGSGSGTEFTLTISSLQPDDFATYYCQHYNSYFVTFGQGTKVEIK
Kd [1]: 7.96 nM
Kd [2]: 0.139 nM
Kd [3]: 12.7 µM
Kd [4]: 2240 nM
Kd [5]: 0.239 nM
Kd [6]: 0.85 nM
Kd [7]: 8.61 nM
Kd [8]: 3.47 nM
Kd [9]: 5.99 nM

B6: AB-007049 (antibody, V domains shown)
VH: QMQLVESGGGVVQPGRSLRLSCTASGFTFSTYAMHWVRQSPGQGLQWVAVISNHETNKYYEDSVRGRFTISRDNSKNTLYLQMNSLRAEDTAVYYCARDGYSSSFFDFWGQGTLVTVSS
VL: DIQMTQSPSTLSASVGDRVAITCRASQSISRWLAWYQQQPGKAPKLLMSGASVLESGVPSRFSGSGSGTEFTLTISSLQPDDFATYYCQHYNSYFVTFGQGTKVEIK
Kd [1]: 25.8 nM
Kd [2]: 0.092 nM
Kd [3]: 2.95 µM
Kd [4]: 7140 nM
Kd [5]: 0.326 nM
Kd [6]: 0.576 nM
Kd [7]: 21.2 nM
Kd [8]: 12.3 nM
Kd [9]: 13 nM

B7: AB-007057 (antibody, V domains shown)
VH: QMQLVESGGGVVQPGRSLRLSCTASGFTFSTYAMHWVRQSPGQGLQWVAVISYHSTNKYYEDSVRGRFTISRDNSKNTLYLQMNSLRAEDTAVYYCARDGYHSSFFDFWGQGTLVTVSS
VL: DIQMTQSPSTLSASVGDRVAITCRASQSISRWLAWYQQQPGKAPKLLMSGASVLESGVPSRFSGSGSGTEFTLTISSLQPDDFATYYCQHYNSYFVTFGQGTKVEIK
Kd [1]: 40.3 nM
Kd [2]: 0.0419 nM
Kd [3]: 20.1 µM
Kd [4]: 9090 nM
Kd [5]: 0.311 nM
Kd [6]: 0.976 nM
Kd [7]: 15.3 nM
Kd [8]: 10.5 nM
Kd [9]: 11.2 nM

B8: AB-007054 (antibody, V domains shown)
VH: QMQLVESGGGVVQPGRSLRLSCTASGFTFSTYAMHWVRQSPGQGLQWVAVISYHSTNKYYEDSVRGRFTISRDNSKNTLYLQMNSLRAEDTAVYYCARDGYASSFFDFWGQGTLVTVSS
VL: DIQMTQSPSTLSASVGDRVAITCRASQSISRWLAWYQQQPGKAPKLLMSGASVLESGVPSRFSGSGSGTEFTLTISSLQPDDFATYYCQHYNSYFVTFGQGTKVEIK
Kd [1]: 10.5 nM
Kd [2]: 0.0552 nM
Kd [3]: 17.6 µM
Kd [4]: 5670 nM
Kd [5]: 0.61 nM
Kd [6]: 1.72 nM
Kd [7]: 13.7 nM
Kd [8]: 8.5 nM
Kd [9]: 10.2 nM

B9: AB-007047 (antibody, V domains shown)
VH: QMQLVESGGGVVQPGRSLRLSCTASGFTFSNYAMHWVRQSPGQGLQWVAVISYHSTNKYYEDSVRGRFTISRDNSKNTLYLQMNSLRAEDTAVYYCARDGYSSSFFDFWGQGTLVTVSS
VL: DIQMTQSPSTLSASVGDRVAITCRASQSISRWLAWYQQQPGKAPKLLMSGASVLESGVPSRFSGSGSGTEFTLTISSLQPDDFATYYCQHYNSYFVTFGQGTKVEIK
Kd [1]: 11.4 nM
Kd [2]: 0.156 nM
Kd [3]: 9.37 µM
Kd [4]: 3680 nM
Kd [5]: 0.567 nM
Kd [6]: 1.32 nM
Kd [7]: 10 nM
Kd [8]: 5.43 nM
Kd [9]: 8.11 nM
